Experimental data from patent US20140072563A1 (Regeneron, published 2014).

T1: hErbB3.mFc (soluble dimeric human ErbB3 extracellular domain fused to mouse Fc) (human)
T1 construct: called dimeric
T1 chain: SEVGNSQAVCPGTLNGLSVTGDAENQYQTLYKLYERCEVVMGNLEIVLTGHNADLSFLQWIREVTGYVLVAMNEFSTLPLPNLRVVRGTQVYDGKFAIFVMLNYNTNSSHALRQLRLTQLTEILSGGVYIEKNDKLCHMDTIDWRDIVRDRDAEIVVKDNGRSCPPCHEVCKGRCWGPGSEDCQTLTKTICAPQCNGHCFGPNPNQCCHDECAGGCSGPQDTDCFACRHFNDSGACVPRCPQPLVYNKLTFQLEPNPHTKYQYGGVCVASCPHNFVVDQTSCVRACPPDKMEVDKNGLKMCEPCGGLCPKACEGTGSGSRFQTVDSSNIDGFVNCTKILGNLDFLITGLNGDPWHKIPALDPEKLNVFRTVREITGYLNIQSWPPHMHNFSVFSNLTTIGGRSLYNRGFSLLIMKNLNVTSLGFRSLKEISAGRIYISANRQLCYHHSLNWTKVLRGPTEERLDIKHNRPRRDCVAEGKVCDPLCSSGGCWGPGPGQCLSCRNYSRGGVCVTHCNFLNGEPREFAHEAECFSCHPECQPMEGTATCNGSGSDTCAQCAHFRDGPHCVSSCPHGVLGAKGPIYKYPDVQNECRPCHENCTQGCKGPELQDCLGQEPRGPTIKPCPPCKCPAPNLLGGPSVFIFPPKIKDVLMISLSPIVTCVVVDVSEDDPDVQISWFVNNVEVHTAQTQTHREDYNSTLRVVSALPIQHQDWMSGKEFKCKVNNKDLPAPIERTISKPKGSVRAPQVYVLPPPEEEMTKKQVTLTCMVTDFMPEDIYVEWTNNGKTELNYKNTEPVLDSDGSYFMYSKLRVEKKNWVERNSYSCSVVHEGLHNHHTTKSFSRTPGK

B1: H4H1819N (antibody, V domains shown)
VH: EVQLVESGGGVVRPGGSLRLSCAASGFTFDDYAMHWVRQAPGKGLEWVAGISWNSGSIDYADSVKGRFTISRDNAKNSLYLQMNSLRAGDTALYYCAKDILDLDYYGLDVWGQGTTVTVSS
VL: DIQMTQSPSSLSASVGDRVTITCRASQDISSYLAWYQQKPGKVPNLLIYDASSLQSGVPSRFSGSGSGTDFTLTLSSLQPEDFASYYCQNYNSAPYTFGQGTKLEIK
notes: Human IgG4 Fc (H4H prefix); same variable domains as H1M1819N
B2: H4H1821N (antibody, V domains shown)
VH: EVQLVESGGGLVQPGRSLRLSCAASGFTFDDYAMHWVRQAPGKGLEWVSSISWNSGSIGYADSVKGRFTISRDNAKNSLYLQMNSLKPEDTALYYCTKDTDYGDYLDAFDIWGQGTMVAVAS
VL: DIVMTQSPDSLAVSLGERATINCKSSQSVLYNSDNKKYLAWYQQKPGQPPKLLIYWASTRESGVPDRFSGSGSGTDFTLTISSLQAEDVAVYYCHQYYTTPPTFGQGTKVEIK
notes: Human IgG4 Fc (H4H prefix); same variable domains as H2M1821N
B3: H2M1937N (antibody, V domains shown)
VH: QVQLQQWDAGLLKPSETLSLTCAVYGGSFSSYYWSWIRQPPGKGLEWIGEINHRGSTNYNPSLKSRVTISVDTSKNQFSLKLRSVTAADTAVYYCARGGVAARPDWHFFDYWGQGTLVTVSS
VL: DIQMTQSPSSLSASVGDRVTITCRASQVIRNDLGWFQQRPGKAPKRLIYAASSLQSEVPSRFSGSGSGTEFTLTITSLQPEDFATYYCLQHNSYPLTFGQGTRLEIK
notes: Hybridoma chimeric antibody: human variable domains, mouse IgG2 Fc (H2M prefix)
B4: H2M1938N (antibody, V domains shown)
VH: EVQLVESGGGVVRPGGSLRLSCAASGFTFDDYGMSWVRQVPGKGLEWVSGLNWNGGITGYTDSVKGRFTISRDNAKNSLYLQMNSLRAEDTAFYHCARDSGDQDAFDIWGQGTMVTVSS
VL: QIVMTQSPATLSVSPGERATLSCRASQSITPYLAWYQQKPGQTPRLLIYGVSTRATGIPARFSGSGSGTEFTLTISSLQSEDFAVYYCQQYDNWYTFGQGTKLEIK
notes: as for B3
B5: H1M1940N (antibody, V domains shown)
VH: QVQVVESGGGVVQPGRSLRLSCAASGFTFSDYGMHWVRQAPGKGLEWVAIISYDGSNKYYADSVKGRFTVSRDNSKNTLYLQLDSLRPEDAAVFYCAREGAFNLDYYAMDVWGQGTTVTVSS
VL: AIQMTQSPSSLSASVGDRVTITCRASQDIRNDLGWYQQKPGKAPNLLIYAASSLQSGVPSRFSGSGSGTDFTLTISSLQPEDFATYYCLQDSNYPLTFGGGTKVEIK
notes: Hybridoma chimeric antibody: human variable domains, mouse constant domains (H1M prefix, mouse Fc)

Columns and labels:
[1] = target: T1, hErbB3.mFc (soluble dimeric human ErbB3 …); test: SPR (Biacore), 37 C, mAb capture format
Protocol: (§1) (Tables 2-4). Measurements were conducted on a Biacore 2000 or T100 instrument. […] Kinetic association (kₐ) and dissociation (kd) rate constants were determined by processing and fitting the data to a 1:1 binding model using Scrubber 2.0 curve fitting software.

[2] = target: T2, hErbB3.mmh (soluble monomeric human ErbB3 extracellular domain with C-terminal myc-myc-hexahistidine tag) (human, UniProt P21860 20-642); test: SPR (Biacore), 37 C, mAb capture format
Protocol: as §1

[3] = target: T1, hErbB3.mFc (soluble dimeric human ErbB3 …); test: SPR (Biacore), 25 C, mAb capture format
Protocol: as §1

[4] = target: T2, hErbB3.mmh (soluble monomeric human …); test: SPR (Biacore), 25 C, mAb capture format
Protocol: as §1

[5] = target: T3, hErbB3.hFc (soluble dimeric human ErbB3 extracellular domain fused to human Fc) (human); test: blocking ELISA: antibody + 50 pM ErbB3-hFc on neuregulin1b-coated plate
T3 construct: called dimeric
T3 sequence (chain, as listed by the source limits assumed): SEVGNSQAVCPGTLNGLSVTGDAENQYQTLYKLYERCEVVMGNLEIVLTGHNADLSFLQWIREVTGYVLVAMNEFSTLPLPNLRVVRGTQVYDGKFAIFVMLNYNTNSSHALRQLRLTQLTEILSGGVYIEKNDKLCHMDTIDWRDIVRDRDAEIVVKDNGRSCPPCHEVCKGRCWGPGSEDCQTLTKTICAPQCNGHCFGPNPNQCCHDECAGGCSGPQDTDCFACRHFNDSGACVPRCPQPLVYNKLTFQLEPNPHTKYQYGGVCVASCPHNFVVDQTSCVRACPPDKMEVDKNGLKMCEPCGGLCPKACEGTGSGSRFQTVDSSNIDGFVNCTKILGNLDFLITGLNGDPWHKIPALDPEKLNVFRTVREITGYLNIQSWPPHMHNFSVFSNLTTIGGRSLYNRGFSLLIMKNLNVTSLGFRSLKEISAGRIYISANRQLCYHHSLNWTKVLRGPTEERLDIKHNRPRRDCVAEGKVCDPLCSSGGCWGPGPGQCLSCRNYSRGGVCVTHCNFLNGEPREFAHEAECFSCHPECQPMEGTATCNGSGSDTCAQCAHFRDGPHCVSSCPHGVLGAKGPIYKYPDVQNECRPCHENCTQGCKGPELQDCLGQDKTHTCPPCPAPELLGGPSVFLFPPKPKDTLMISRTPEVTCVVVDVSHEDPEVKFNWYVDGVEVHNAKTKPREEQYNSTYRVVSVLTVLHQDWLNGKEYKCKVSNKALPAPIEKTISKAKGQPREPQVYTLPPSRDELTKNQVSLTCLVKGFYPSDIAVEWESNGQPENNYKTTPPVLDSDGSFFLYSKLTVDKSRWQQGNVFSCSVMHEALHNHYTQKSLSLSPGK
Text: To further characterize anti-hErbB3 mAbs of the present invention, their ability to block ligand binding was examined via ELISA. […] Plates were washed and non-sequestered (plate bound) ErbB3 was detected with an anti-Fc poly conjugated with horseradish peroxidase (HRP). Plates were developed with TMB (3,3′,5,5′-tetramethylbenzidine) and neutralized with sulfuric acid before reading absorbance at 450 nm on a Victor X5 plate reader. Data analysis used a sigmoidal dose-response model within Prism™ software. […] Maximal blocking for each antibody was calculated by taking the difference in absorbance from zero to 50 nM antibody on the inhibition curve, divided by the difference in absorbance from 50 pM to zero ErbB3 on the dose curve.

[6] = target: T3, hErbB3.hFc (soluble dimeric human ErbB3 …); test: SPR (Biacore), 25 C, mAb capture format
Protocol: as §1

Binder | Kd [1] | T½ [1] | koff [1] | kon [1] | Kd [2] | T½ [2] | koff [2] | kon [2] | Kd [3] | T½ [3] | Kd [4] | T½ [4] | koff [4] | kon [4] | IC50 [5] | Maximal Blocking (%) [5] | Kd [6] | T½ [6] | koff [6] | kon [6] | further results
B1 | 1.53 pM | 206 min | 5.62e-05 s⁻¹ | 3.68e+07 M⁻¹ s⁻¹ | 0.129 nM | 7 min | 0.00156 s⁻¹ | 1.21e+07 M⁻¹ s⁻¹ | 0.943 pM | 748 min | 0.0435 nM | 33 min | 0.000351 s⁻¹ | 8.1e+06 M⁻¹ s⁻¹ |  |  |  |  |  |  | koff [3]: 1.54e-05 s⁻¹; kon [3]: 1.64e+07 M⁻¹ s⁻¹
B2 | 1.89 pM | 326 min | 3.55e-05 s⁻¹ | 1.87e+07 M⁻¹ s⁻¹ | 0.167 nM | 11 min | 0.00108 s⁻¹ | 6.49e+06 M⁻¹ s⁻¹ | 0.355 pM | 2660 min | 0.051 nM | 60 min | 0.000192 s⁻¹ | 3.8e+06 M⁻¹ s⁻¹ |  |  |  |  |  |  | koff [3]: 4.33e-06 s⁻¹; kon [3]: 1.22e+07 M⁻¹ s⁻¹
B3 |  |  |  |  |  |  |  |  |  |  | 0.682 nM | 205 min | 5.63e-05 s⁻¹ | 82600 M⁻¹ s⁻¹ | 0.044 nM | 95% | 0.116 nM | 908 min | 1.27e-05 s⁻¹ | 110000 M⁻¹ s⁻¹ | 
B4 |  |  |  |  |  |  |  |  |  |  | 0.599 nM | 80 min | 0.000144 s⁻¹ | 241000 M⁻¹ s⁻¹ | 0.0249 nM | 85% | 0.0301 nM | 851 min | 1.36e-05 s⁻¹ | 451000 M⁻¹ s⁻¹ | 
B5 |  |  |  |  |  |  |  |  |  |  | 0.477 nM | 84 min | 0.000138 s⁻¹ | 289000 M⁻¹ s⁻¹ | 0.53 nM | 80% | 0.0529 nM | 475 min | 2.43e-05 s⁻¹ | 460000 M⁻¹ s⁻¹ | 
